Experimental data taken from the supplement of paper PMC9170038.

System: MS2 coat protein
Test: apparent KD of MS2 coat protein; designed switch direction (-1 OFF switch, 1 ON switch): -1; higher = weaker reporter binding
How it was run: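 Designed RNA switches were transcribed on Illumina chips by stalled E. coli RNA polymerase and titrated with SNAP-549-labelled MS2 coat protein from 0.7 or 1.5 nM, doubling to 3 µM. Step length ran from 0.8–1.5 h at the lowest concentration to 10–20 min at the highest. The apparent KD is the median over clusters for each design, from curve-fitted normalised cluster fluorescence.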

[1] = input ligand: microRNA oligo, concentration not stated
[2] = Eterna round: R95, input ligand: FMN 200 uM
[3] = Eterna round: R95, input ligand: microRNA oligo, concentration not stated
[4] = Eterna round: R95, input ligand: none

AAAGUCCUAGGAGGAUAUCACCUGCCUAGCACAUGAGAAGGCCUAGGAGACAUGAGGAUCACCCAUGUGUCCUUAGUCGAAAAU [Ensobedi] (Eterna round: R96, puzzle: Exclusion NG 1)
apparent KD of MS2 coat protein (input ligand: FMN 200 uM): 19.5 nM | apparent KD of MS2 coat protein [1]: 9.59 nM | apparent KD of MS2 coat protein (input ligand: none): 13.2 nM

GGAUGUCUAAAGGAUAUGCUGGAUUAAUAUCUGGCAGAAGGUUGGACAUGAGGAUCACCCAUGUAAAUUCUGCC [Omei Ex6 A11] (Eterna round: R97, puzzle: Exclusion 6)
apparent KD of MS2 coat protein (input ligand: FMN 200 uM): 24.6 nM | apparent KD of MS2 coat protein (input ligand: none): 17.3 nM

AUCAGCUCGUGAGGAUAUACAUGAGGAUCACCCAUGUGAUCAAUAGCAGCUUCGGCUGCAUUAAUGUAGAAGGCACGAGCUGAU [ENG2/5-A3] (Eterna round: R96, puzzle: Exclusion NG 2)
apparent KD of MS2 coat protein (input ligand: FMN 200 uM): 77.9 nM | apparent KD of MS2 coat protein [1]: 22.2 nM | apparent KD of MS2 coat protein (input ligand: none): 214 nM

ACUUAUAGAGGAUAUACAGAAUAUUACAUGAGGAUCACCCAUGUUCUUCAAUGUAUAUAAGUAGAAGGCUAAGGUU [Mat - Exclusion 5 - JL Mod - D5] (Eterna round: R97, puzzle: Exclusion 5)
apparent KD of MS2 coat protein (input ligand: FMN 200 uM): 282 nM | apparent KD of MS2 coat protein (input ligand: none): 33.4 nM

CUAGAUCUUCGGAUCUAGUACAUGAGGAUCACCCAUGUGACGAGUAGAUCCUCAAACAAGCUUUUUGCUCGUCUUAU [Sensor v3 - Turn-off variant 1 - 20] (Eterna round: R96, puzzle: Sensor v3, turn-off variant 1)
apparent KD of MS2 coat protein (input ligand: FMN 200 uM): 132 nM | apparent KD of MS2 coat protein [1]: 16.4 nM | apparent KD of MS2 coat protein (input ligand: none): 194 nM

UUUUAACAUGAGGAUCACCCAUGUGAGGAUAUCCUAUUUUUUUUUUUUUUUUUUUUUUGGAGAAGGCACAUUUU [My solution] (puzzle: Exclusion 1)
apparent KD of MS2 coat protein [2]: 23.1 nM | apparent KD of MS2 coat protein [3]: 38.3 nM | apparent KD of MS2 coat protein [4]: 7.45 nM

ACAUGUCAUUGAGGAUAUCGCACACAUGAGGAUCACCCAUGUAAACAGAUGCUCAUAAGUGGGUUCGAGAAGGCGAUGUACAUU [Ex NG2 #100] (Eterna round: R96, puzzle: Exclusion NG 2)
apparent KD of MS2 coat protein (input ligand: FMN 200 uM): 318 nM | apparent KD of MS2 coat protein [1]: 119 nM | apparent KD of MS2 coat protein (input ligand: none): 117 nM

GUAGAGUGAGGAUAUACGAGAUCGAAAGAUCAACGAUCCAAACAUGAGGAUCACCCAUGUAGAAGGCACUCUAC [Eli x2 4.008] (Eterna round: R97, puzzle: Exclusion 2)
apparent KD of MS2 coat protein (input ligand: FMN 200 uM): 270 nM | apparent KD of MS2 coat protein (input ligand: none): 27.1 nM

GGUACUCAAAGAGUACCAAUACGAACAUGAGGAUCACCCAUGUAGGAUAUGCUACUCAAAGAGUAGCAGAAGGAUAUGAUGGAU [Far Half Aptamer v15] (Eterna round: R96, puzzle: Exclusion NG 3)
apparent KD of MS2 coat protein (input ligand: FMN 200 uM): 60.2 nM | apparent KD of MS2 coat protein [1]: 19.2 nM | apparent KD of MS2 coat protein (input ligand: none): 34.2 nM

ACAGAGCAAGGAUAUGCCGGGCGUGACAUGAGGAUCACCCAUGUGAUGCCGGUACGUUUAGCAGAAGGUGCAGGCA [EX5 C.2] (Eterna round: R97, puzzle: Exclusion 5)
apparent KD of MS2 coat protein (input ligand: FMN 200 uM): 19 nM | apparent KD of MS2 coat protein (input ligand: none): 14.8 nM

CUCAUGUGAGGAUAUGUGAUCUGCUUUCUGUGUAGAUGAUCACAGAAGGCACAUGAGGAUCACCCAUGUAGAUC [Ex4 - 3 - 28] (Eterna round: R96, puzzle: Exclusion 4)
apparent KD of MS2 coat protein (input ligand: FMN 200 uM): 65.7 nM | apparent KD of MS2 coat protein [1]: 93.9 nM | apparent KD of MS2 coat protein (input ligand: none): 91 nM

UGUAGUUCAGGAUAUGAUGUUAAAUACAUGAGGAUCACCCAUGUAGAUCCUGAAUUUACAUCAGAAGGGAAUAUUU [JL-ex5-4.56 Brourd mod] (Eterna round: R97, puzzle: Exclusion 5)
apparent KD of MS2 coat protein (input ligand: FMN 200 uM): 22.8 nM | apparent KD of MS2 coat protein (input ligand: none): 17.1 nM

GUGAGCAGACGGAGAUCCAACAUGAGGAUCACCCAUGUCUCAUAAGCUUUUUGCUCAUCUUAUUGUACCUUGGUGCU [Mat - Sensor v3 - turn-off var 1 - JL Mod - D20] (puzzle: Sensor v3, turn-off variant 1)
apparent KD of MS2 coat protein [2]: 291 nM | apparent KD of MS2 coat protein [3]: 8.27 nM | apparent KD of MS2 coat protein [4]: 253 nM

CUGUUCCGUGUAGGAUAUGCAUAUUCUCAUUAUGCAGAAGGACAUGAGGAUCACCCAUGUAUGUUAUUAUCAUAUGUUACAUGU [Design 5] (Eterna round: R96, puzzle: Exclusion NG 1)
apparent KD of MS2 coat protein [1]: 29.7 nM

CUCCUCCCGAAGGAUAUCCACGCCAACUUCGUAGGAGAAGGUCGGACAUGAGGAUCACCCAUGUGGCCAUGGUU [Gezateza] (puzzle: Exclusion 6)
apparent KD of MS2 coat protein [3]: 16 nM

CAUUAUUAUCGAGGAUAUCCUAUUGAAAUUCUGGGAGAAGGCGGACUCAACAUGAGGAUCACCCAUGUGAGACGGAUGCUAGGG [Ex NG1 #27] (Eterna round: R96, puzzle: Exclusion NG 1)
apparent KD of MS2 coat protein [1]: 15 nM

UCGCUGCGAGGAUAUACAUGAGGAUCACCCAUGUGCGGGUCCGGGUCUUCGUCCAUUGGUAGAAGGCGCAGUGA [JL Laongeedie mod 6] (puzzle: Exclusion 3)
apparent KD of MS2 coat protein [3]: 43 nM

GGAGCGAUUCUCUUAGUUAACAUGAGGAUCACCCAUGUGUACAAGCUCUUAUUUUGCUCGUCUUACCGAGAGUUGCC [Tienve] (puzzle: Sensor v3, turn-off variant 1)
apparent KD of MS2 coat protein [2]: 22.6 nM | apparent KD of MS2 coat protein [3]: 74.3 nM | apparent KD of MS2 coat protein [4]: 24.7 nM

GCCGGGCGAGGAUAUACAUGGCGGGCGAAAGCCCGCGAUCUACAUGAGGAUCACCCAUGUAGAAGGCGCCCGGC [2nd Free energy optimized design] (Eterna round: R97, puzzle: Exclusion 2)
apparent KD of MS2 coat protein (input ligand: FMN 200 uM): 567 nM | apparent KD of MS2 coat protein (input ligand: none): 49.3 nM

GUGGUACAUGAGGAUCACCCAUGUAAGGAUAUAGUCGUCUGGUGGUCGCGGGUGGUGGCUAGAAGGUGCGUGCG [-19.6, -16.8 kcal, A 19%] (Eterna round: R97, puzzle: Exclusion 1)
apparent KD of MS2 coat protein (input ligand: FMN 200 uM): 93.9 nM | apparent KD of MS2 coat protein (input ligand: none): 125 nM

CGCUAUAGAGGAUAUACGAGAUCGAAAGAUCGGCGAUCCCUACAUGAGGAUCACCCAUGUAGAAGGCUAUAGCG [Mod 18 - Jieux - Exclusion 2] (Eterna round: R97, puzzle: Exclusion 2)
apparent KD of MS2 coat protein (input ligand: FMN 200 uM): 83.3 nM | apparent KD of MS2 coat protein (input ligand: none): 15.7 nM

GGUCGACAUGAGGAUCACCCAUGUCAGGAUAUCGUCACUGGAGCUUCGGCUCCAGUGACGAGAAGGGACAUAAU [E1/14-A1] (Eterna round: R97, puzzle: Exclusion 1)
apparent KD of MS2 coat protein (input ligand: FMN 200 uM): 39.5 nM | apparent KD of MS2 coat protein (input ligand: none): 39.2 nM

UAUAGACAUGAGGAUCACCCAUGUGAGGAUAUGUACAACAACAAGCCGGAAGCGGAAUACAGAAGGCACAAAUA [JR_Exclusion1_Sub029] (puzzle: Exclusion 1)
apparent KD of MS2 coat protein [2]: 36.8 nM | apparent KD of MS2 coat protein [3]: 35.7 nM | apparent KD of MS2 coat protein [4]: 51.4 nM

CGGAAGAUCGAAGGAUAUUGAGACAAACAGUGUCAAGAAGGUUGGGAGGACACAUGAGGAUCACCCAUGUCCAACUUUUGACGG [Eternabot solution 26] (Eterna round: R96, puzzle: Exclusion NG 1)
apparent KD of MS2 coat protein (input ligand: FMN 200 uM): 12.7 nM | apparent KD of MS2 coat protein [1]: 9.76 nM | apparent KD of MS2 coat protein (input ligand: none): 12.4 nM

AUGGGUCCUCACGGAGCUACAUGAGGAUCACCCAUGUGGAUUGAGGAUAUCGACUGCCGACGGCUCGAGAAGGCAGUUUACUGU [Ex NG3 #95] (Eterna round: R96, puzzle: Exclusion NG 3)
apparent KD of MS2 coat protein (input ligand: FMN 200 uM): 18.6 nM | apparent KD of MS2 coat protein [1]: 14.3 nM | apparent KD of MS2 coat protein (input ligand: none): 20.2 nM

GAUGUGGGUUUCCGGAGUAACAUGAGGAUCACCCAUGUAGAAGUUGGAGGGAUCAAGCUUUUUGGUCGUCACACGUG [JR_SV3TOV1_Sub053] (puzzle: Sensor v3, turn-off variant 1)
apparent KD of MS2 coat protein [2]: 213 nM | apparent KD of MS2 coat protein [3]: 227 nM | apparent KD of MS2 coat protein [4]: 306 nM

GCAGGAUAAGUGAGGAUAUACCUCUGGAUACAGAGGUAGAAGGCACAUGAGGAUCACCCAUGUCUAUCACCUGC [Fiskers BMX 4 - 78] (puzzle: Brourd's mod of Exclusion 4)
apparent KD of MS2 coat protein [3]: 14.5 nM

AGUAGUUGUUUCCGUUCUUACAUGAGGAUCACCCAUGUUUCUUGUCGUGCUCGCGAUGCUCGUCAGACUACCAGAUG [salish99_TOv1_r3_059] (puzzle: Sensor v3, turn-off variant 1)
apparent KD of MS2 coat protein [2]: 53.4 nM | apparent KD of MS2 coat protein [3]: 65.7 nM | apparent KD of MS2 coat protein [4]: 72.8 nM

UUAGGUAAAGGAUAUGUAUGGGCGACCCAUAUGACCGAGUGACAUGAGGAUCACCCAUGUAGAAGGUUGCUGAU [Eternabot (L1) Solution 60] (Eterna round: R97, puzzle: Exclusion 2)
apparent KD of MS2 coat protein (input ligand: FMN 200 uM): 125 nM | apparent KD of MS2 coat protein (input ligand: none): 95.7 nM

GGUGAGCUAGGAUAUGCUUUGGGCUCGCUUUCCUUCGUUUUACUUGAGGAUCACCCAAGUAGAAGGAGCUUGCC [salish99_ex2_r4_036] (Eterna round: R97, puzzle: Exclusion 2)
apparent KD of MS2 coat protein (input ligand: FMN 200 uM): 13.9 nM | apparent KD of MS2 coat protein (input ligand: none): 12.2 nM

GUUAACGAUGAGGAUAUAUGAUAUCAAAGCAUCAUAGAAGGCAUCACAUGAGGAUCACCCAUGUGAUCUUCUUG [Mat - Exclusion 6 - JL Mod - D27] (Eterna round: R97, puzzle: Exclusion 6)
apparent KD of MS2 coat protein (input ligand: FMN 200 uM): 120 nM | apparent KD of MS2 coat protein (input ligand: none): 29.4 nM

CUCAUGUGAGGAUAUGUGAUCUGCUUUCUGUGUAGAUGAUCACAGAAGGCACAUGAGGAUCACCCAUGUAGAUC [Ex4 - 3 - 28] (puzzle: Exclusion 4)
apparent KD of MS2 coat protein [3]: 67.5 nM

CCAGAGUGAGGAUAUGCAUAAAGGUGCUGUCCCGUGGCUUGACAUGAGGAUCACCCAUGUAGAAGGUGCGUUGU [Raonra] (puzzle: Exclusion 2)
apparent KD of MS2 coat protein [3]: 38.7 nM

GCCUCACUUGAGGAUCACCCAAGUCAGGAUAUUCACUGAACUGCGUAACAGUUCGGCCGAAGAAGGGAUUCGGG [Uscedian] (Eterna round: R97, puzzle: Exclusion 1)
apparent KD of MS2 coat protein (input ligand: FMN 200 uM): 35.6 nM | apparent KD of MS2 coat protein (input ligand: none): 96.5 nM
